# Source: patent publication US20110224407A1 (published 2011)
# T1: human IFNAR1-ECD (human, UniProt P17181 28-436)
# T1 construct: extracellular domain; Purified ECD captured on the chip by antibody DB2 and cross-linked with AA3; also called purified human IFNAR-1
# T1 sequence (looked up): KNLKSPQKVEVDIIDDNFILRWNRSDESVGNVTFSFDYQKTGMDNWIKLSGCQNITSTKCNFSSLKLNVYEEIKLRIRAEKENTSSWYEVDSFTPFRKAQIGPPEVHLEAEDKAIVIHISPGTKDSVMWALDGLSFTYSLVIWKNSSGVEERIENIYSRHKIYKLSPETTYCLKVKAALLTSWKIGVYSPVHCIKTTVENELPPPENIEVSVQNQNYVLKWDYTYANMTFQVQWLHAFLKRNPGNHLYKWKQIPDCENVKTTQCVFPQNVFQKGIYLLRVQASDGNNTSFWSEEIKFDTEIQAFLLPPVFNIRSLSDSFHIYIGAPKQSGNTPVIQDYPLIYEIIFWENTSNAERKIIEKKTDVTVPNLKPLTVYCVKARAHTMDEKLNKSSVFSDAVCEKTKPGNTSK
# Experiments:
# [1] = target: human IFNAR-1 on human cells (HeLa, WISH, A549) (human) (UniProt P17181); test: cell-based or functional assay
# [2] = target: murine IFNAR-1 on murine cells (L-929, NFS-01) (murine) (UniProt P33896); test: cell-based or functional assay
# Chain of murine IFNAR-1 on murine cells (L-929, NFS-01) (murine) (P33896 27-590): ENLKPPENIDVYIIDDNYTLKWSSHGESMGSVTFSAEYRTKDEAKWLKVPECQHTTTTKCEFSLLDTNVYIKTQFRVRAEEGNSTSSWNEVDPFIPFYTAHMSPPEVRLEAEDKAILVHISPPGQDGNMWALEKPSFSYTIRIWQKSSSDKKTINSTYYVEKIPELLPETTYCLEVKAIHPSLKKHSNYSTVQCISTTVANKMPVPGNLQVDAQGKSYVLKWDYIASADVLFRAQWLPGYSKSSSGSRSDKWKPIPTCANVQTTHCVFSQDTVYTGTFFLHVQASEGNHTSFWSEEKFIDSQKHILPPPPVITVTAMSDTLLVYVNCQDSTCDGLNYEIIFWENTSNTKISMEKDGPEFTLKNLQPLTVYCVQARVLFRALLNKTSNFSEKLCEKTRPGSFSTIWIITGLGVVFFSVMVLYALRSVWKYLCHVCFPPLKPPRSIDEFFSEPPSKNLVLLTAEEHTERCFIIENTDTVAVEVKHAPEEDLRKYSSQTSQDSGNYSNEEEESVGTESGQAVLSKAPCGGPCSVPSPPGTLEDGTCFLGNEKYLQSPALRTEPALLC
# [3] = target: T1, human IFNAR1-ECD; test: SPR, IFNAR-1-ECD captured by antibody
# Protocol: Binding to purified human IFNAR-1 and IFNAR-2 is measured with the Protein Interaction Array system (Bio-Rad) according to published methods. A solution of 0.005% Tween20 in PBS pH 7.4 was used as running buffer at a flow rate of 30 μl/min. […] Thereafter, five of the six channels were reacted with IFNAR1-ECD or IFNAR2-ECD (180 μl at a concentration of 0.5 μM), leaving one channel free as reference. This was followed by cross-linking a second antibody. […] Data were analyzed with the BIAeval 4.1 software, using, the standard Langmuir models for fitting kinetic data. Dissociation constants KD were determined from the rate constants according to:
"Antiviral Activity (% of Native), Murine (L-929) [2] [%]","Antiviral Activity (% of Native), Human (HeLa) [1] [%]","Antiviral Activity (% of Native), Human (Wish) [1] [%]",Molecule,other results
–,–,–,IFN-α2b[R120A] (from UniProt P01563 24-188) (ligand),"Antiproliferative Activity, Human (Wish; %) [1]: 0.05%; Antiviral Activity (% of Native EC50), Human (HeLa) [1]: 2.3%"
< 0.04,< 0.08,0.006,IFN-α2/α1[K120E/K121E] (from UniProt A0A087WWS6 25-190) (ligand),"Antiproliferative Activity (% of native), Murine (NFS-01) [2]: < 0.0001%; Antiproliferative Activity (% of native), Human (WISH) [1]: < 0.05%"
0.5,8,–,IFN-α2/α1[K121E] (from UniProt A0A087WWS6 25-190) (ligand),–
33,8.3,13.8,IFN-α2/α1[K120A/K121A] (from UniProt A0A087WWS6 25-190) (ligand),"Antiproliferative Activity (% of native), Murine (NFS-01) [2]: 8%; Antiproliferative Activity (% of native), Human (WISH) [1]: 0.5%"
100,20,–,IFN-α2/α1[R124E] (from UniProt A0A087WWS6 25-190) (ligand),–
38,69,96,IFN-α2/α1[Y89A] (from UniProt A0A087WWS6 25-190) (ligand),–
–,–,–,IFN-α2 NLYY-120A (N65A/L80A/Y85A/Y89A/R120A) (from UniProt P01563 24-188) (ligand),"Antiproliferative Activity (% of Native EC50), Human (Wish) [1]: < 0.001%; Antiviral Activity (% of Native EC50), Human (HeLa) [1]: < 0.002%; Antiviral Activity (% of Native EC50), Human (Wish) [1]: < 0.001%"
–,–,–,IFN-α2b-[Arg120Glu/Lys121Glu] (from UniProt P01563 24-188) (ligand),"Antiproliferative Activity (% of Native EC50), Human (Wish) [1]: < 0.02%; Antiviral Activity (% of Native EC50), Human (HeLa) [1]: < 1.3%; Antiviral Activity (% of Native EC50), Human (Wish) [1]: < 0.002%"
100,54,204,IFN-α2/α1[L80A/C85A/Y89A] (from UniProt A0A087WWS6 25-190) (ligand),–
–,143,183,IFN-α2/α1[C85A/Y89A] (from UniProt A0A087WWS6 25-190) (ligand),–
–,–,–,IFN-α2 NLYY-117A (N65A/L80A/Y85A/Y89A/L117A) (from UniProt P01563 24-188) (ligand),"Antiviral Activity (% of Native EC50), Human (Wish) [1]: 0.03%"
< 0.01,< 0.04,< 0.1,IFN-α2/α1[K120E/K121E/R124E] (from UniProt A0A087WWS6 25-190) (ligand),"Antiproliferative Activity (% of native), Human (WISH) [1]: < 0.2%"
31,–,–,IFN-α2/α1[L80A] (from UniProt A0A087WWS6 25-190) (ligand),"Antiviral Activity (% of native), Human; *Assay on human A549 cells [1]: 19%"
55,–,–,IFN-α2/α1[N65A/L80A/C85A/Y89A] (from UniProt A0A087WWS6 25-190) (ligand),"Antiviral activity (relative %), IFN-α2/α1, Human HeLa (partial results) [1]: 63%"
–,4.2,11,IFN-α2/α1 5-site alanine substitution mutant (F64/N65/L80/C85/Y89) (from UniProt A0A087WWS6 25-190) (ligand),–
< 0.04,< 0.04,< 0.02,IFN-α2/α1[K120E] (from UniProt A0A087WWS6 25-190) (ligand),"Antiproliferative Activity (% of native), Murine (NFS-01) [2]: < 0.0005%; Antiproliferative Activity (% of native), Human (WISH) [1]: < 0.02%"
144,141,–,IFN-α2/α1[C85A] (from UniProt A0A087WWS6 25-190) (ligand),–
2,2,9.7,IFN-α2/α1[K120A] (from UniProt A0A087WWS6 25-190) (ligand),"Antiproliferative Activity (% of native), Murine (NFS-01) [2]: 0.03%; Antiproliferative Activity (% of native), Human (WISH) [1]: 0.7%"
–,–,–,"human-derived chimeric IFN-α2/α1 (native) (ligand, the text itself names F64; E. coli; also called IFN-αA/D; Hu-alpha2/1) CDLPQTHSLGSRRTLMLLAQMRKISLFSCLKDRHDFGFPQEEFGNQFQKAETIPVLHEMIQQIFNLFTTKDSSAAWDEDLLDKFCTELYQQLNDLEACVMQEERVGETPLMNADSILAVKKYFRRITLYLTEKKYSPCAWEVVRAEIMRSLSLSTNLQERLRRKE",fold stronger affinity than IFN-α2 [3]: ~5 fold; ratio of KD to that of IFN-α2 [3]: ~0.2
